Target: T1, Cdc53(267-851)/GST-Rbx1 complex expressed in bacteria, Q08273
T1 chain: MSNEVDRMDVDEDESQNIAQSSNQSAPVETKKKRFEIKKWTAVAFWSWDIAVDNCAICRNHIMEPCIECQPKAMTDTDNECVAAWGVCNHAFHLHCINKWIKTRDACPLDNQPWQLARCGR
Test: in vitro binding assay (MBP pull-down on amylose beads, Western blot quantification)
Details: chain shown with the change, bacterial lysate expressing Cdc53(267-851)/Rbx1, normalized to Amido black signal of MBP tagged protein, read off a plot

B1: (MBP)-Met30(1-186), P39014 M178E; I179E (protein)
chain: MRRERQRMMSFEDKDKDDLDNSNSNNSSEMTDTAMMPPLKRLLITGSSDDLAQGSSGKKKMTMATRSPSSSPDLATNDSGTRVQPLPEYNFTKFCYRHNPDIQFSPTHTACYKQDLKRTQEINANIAKLPLQEQSDIHHIISKYSNSNDKIRKLILDGILSTSCFPQLSYISSLVTHEEKIDFISI
Work on B1 yielded a response (Cdc53/Amido Black) (Exp 1, parent: est. 3.1) of 0.15, a response (Cdc53/Amido Black) (Exp 2, parent: est. 7.3) of 2.9 and a response (Cdc53/Amido Black) (Exp 3, parent: est. 4.6) of 0.45.

Source: article PMC4675558
